Measurements from publication PMC5072841, “Insights into HIV-1 proviral transcription from integrative structure and dynamics of the Tat:AFF4:P-TEFb:TAR complex” (eLife, 2016).

Key:
[1] = system: HIV-1 Tat;Cyclin T1 (CycT1, P-TEFb subunit);CDK9 (P-TEFb subunit);AFF4 2-73 WT (HIV-1;human;human;human); assay: EMSA; settings: EMSA: 100 pM 32P-TAR, 0.009-190 nM Tat:P-TEFb, 5-fold molar excess AFF4 over P-TEFb; buffer and temperature as in Schulze-Gahmen 2014 (not given). SHAPE: RNA …
[2] = system: HIV-1 Tat;Cyclin T1 (CycT1, P-TEFb subunit);CDK9 (P-TEFb subunit) (HIV-1;human;human); assay: EMSA; settings: EMSA: 100 pM 32P-TAR, 0.009-190 nM Tat:P-TEFb, 5-fold molar excess AFF4 over P-TEFb; buffer and temperature as in Schulze-Gahmen 2014 (not given). SHAPE: RNA …
[3] = system: HIV-1 Tat;Cyclin T1 (CycT1, P-TEFb subunit);CDK9 (P-TEFb subunit);AFF4 2-73 WT (HIV-1;human;human;human); assay: EMSA; settings: EMSA: 100 pM 32P-TAR, 0.009-190 nM Tat:P-TEFb, 5-fold molar excess AFF4 over P-TEFb; buffer and temperature as in Schulze-Gahmen 2014 (not given). SHAPE: RNA …; remark: listed apart in the source
[4] = system: HIV-1 Tat;Cyclin T1 (CycT1, P-TEFb subunit);CDK9 (P-TEFb subunit);AFF4 2-73 K63A (HIV-1;human;human;human); assay: EMSA; settings: EMSA: 100 pM 32P-TAR, 0.009-190 nM Tat:P-TEFb, 5-fold molar excess AFF4 over P-TEFb; buffer and temperature as in Schulze-Gahmen 2014 (not given). SHAPE: RNA …
[5] = system: HIV-1 Tat;Cyclin T1 (CycT1, P-TEFb subunit);CDK9 (P-TEFb subunit);AFF4 2-73 E61A (HIV-1;human;human;human); assay: EMSA; settings: EMSA: 100 pM 32P-TAR, 0.009-190 nM Tat:P-TEFb, 5-fold molar excess AFF4 over P-TEFb; buffer and temperature as in Schulze-Gahmen 2014 (not given). SHAPE: RNA …
human cyclin T1 1-264 = molecular target: T1, human cyclin T1 1-264 (human, UniProt O60563 1-264); assay: crystal structure; Tat_(1-57):AFF4_(32-67):P-TEFb combined with TAR21 RNA (nucleotides 21-41) at 1:1.3; sitting drops at 18°C; 5.9 Å; molecular replacement with PDB 4OGR; settings: both partners purified
T1 construct: human cyclin T1, residues 1-264; also called CycT1; CycT; source: High 5 insect cells, recombinant baculovirus, co-expressed with CDK9 and Tat, purified
T1 sequence (O60563 1-264): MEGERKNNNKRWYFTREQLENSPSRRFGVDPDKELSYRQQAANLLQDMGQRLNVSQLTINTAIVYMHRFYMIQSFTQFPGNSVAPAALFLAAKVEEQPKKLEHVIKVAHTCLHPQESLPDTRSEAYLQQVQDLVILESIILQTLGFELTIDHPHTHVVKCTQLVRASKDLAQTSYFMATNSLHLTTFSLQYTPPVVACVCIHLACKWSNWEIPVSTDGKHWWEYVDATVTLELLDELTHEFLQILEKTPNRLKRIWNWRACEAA

Molecule	Kd [1]	Kd [2]	Kd [3]	binding signal (fold reduction in affinity vs WT AFF4) [4]	binding signal (fold reduction in affinity vs WT AFF4) [5]	binding result (human cyclin T1 1-264)
HIV-1 TAR 18-44 WT	0.2 nM	19 nM	0.26 nM	2	3	
Ac-SPLFAEPYKVTSKEDKLSSRIQSMLGNYDEMKDFIG-NH2 (peptide, UniProt Q9UHB7 32-67, looked up, human AFF4, residues 32-67; also called AFF4_(32-67); synthetic AFF4 peptide (32-67); source: synthetic peptide (University of Utah DNA/Peptide Facility)) [AFF4 peptide 32-67]						binds
